Publication PMC5737966 (Nature structural & molecular biology, 2017)
Where two headings read alike, the source gives them in different places.

What was measured:
[1] = molecular target: heavy chain (HC) of the 2-hep HMM construct of human β-cardiac myosin; test: stoichiometry of the purified complex
[2] = molecular target: human β-cardiac short S1 (sS1) with a C-terminal GFP, wild type (human) (UniProt P12883); test: MST
[3] = molecular target: actin; test: MST
[4] = molecular target: full-length recombinant human cardiac MyBP-C, nonphosphorylated (human, UniProt Q14896 1-1274); test: MST
[5] = molecular target: T1, human β-cardiac short S1 (sS1) with a C-terminal GFP, wild type (human, UniProt P12883 1-808); test: MST
[6] = molecular target: T1, human β-cardiac short S1 (sS1) with a …; test: MST; remark: listed apart in the source
[7] = molecular target: R453C human β-cardiac sS1 with a C-terminal GFP (human, UniProt P12883 1-808, R453C); test: MST
[8] = molecular target: R249Q human β-cardiac sS1 with a C-terminal GFP (human, UniProt P12883 1-808, R249Q); test: MST
[9] = molecular target: R403Q human β-cardiac sS1 with a C-terminal GFP (human, UniProt P12883 1-808, R403Q); test: MST
[10] = molecular target: MyBP-C (construct and phosphorylation state not told for these experiments) (human, UniProt Q14896 1-1274); test: MST
Sequence of MyBP-C (construct and phosphorylation state not told for these experiments) (Q14896 whole entry): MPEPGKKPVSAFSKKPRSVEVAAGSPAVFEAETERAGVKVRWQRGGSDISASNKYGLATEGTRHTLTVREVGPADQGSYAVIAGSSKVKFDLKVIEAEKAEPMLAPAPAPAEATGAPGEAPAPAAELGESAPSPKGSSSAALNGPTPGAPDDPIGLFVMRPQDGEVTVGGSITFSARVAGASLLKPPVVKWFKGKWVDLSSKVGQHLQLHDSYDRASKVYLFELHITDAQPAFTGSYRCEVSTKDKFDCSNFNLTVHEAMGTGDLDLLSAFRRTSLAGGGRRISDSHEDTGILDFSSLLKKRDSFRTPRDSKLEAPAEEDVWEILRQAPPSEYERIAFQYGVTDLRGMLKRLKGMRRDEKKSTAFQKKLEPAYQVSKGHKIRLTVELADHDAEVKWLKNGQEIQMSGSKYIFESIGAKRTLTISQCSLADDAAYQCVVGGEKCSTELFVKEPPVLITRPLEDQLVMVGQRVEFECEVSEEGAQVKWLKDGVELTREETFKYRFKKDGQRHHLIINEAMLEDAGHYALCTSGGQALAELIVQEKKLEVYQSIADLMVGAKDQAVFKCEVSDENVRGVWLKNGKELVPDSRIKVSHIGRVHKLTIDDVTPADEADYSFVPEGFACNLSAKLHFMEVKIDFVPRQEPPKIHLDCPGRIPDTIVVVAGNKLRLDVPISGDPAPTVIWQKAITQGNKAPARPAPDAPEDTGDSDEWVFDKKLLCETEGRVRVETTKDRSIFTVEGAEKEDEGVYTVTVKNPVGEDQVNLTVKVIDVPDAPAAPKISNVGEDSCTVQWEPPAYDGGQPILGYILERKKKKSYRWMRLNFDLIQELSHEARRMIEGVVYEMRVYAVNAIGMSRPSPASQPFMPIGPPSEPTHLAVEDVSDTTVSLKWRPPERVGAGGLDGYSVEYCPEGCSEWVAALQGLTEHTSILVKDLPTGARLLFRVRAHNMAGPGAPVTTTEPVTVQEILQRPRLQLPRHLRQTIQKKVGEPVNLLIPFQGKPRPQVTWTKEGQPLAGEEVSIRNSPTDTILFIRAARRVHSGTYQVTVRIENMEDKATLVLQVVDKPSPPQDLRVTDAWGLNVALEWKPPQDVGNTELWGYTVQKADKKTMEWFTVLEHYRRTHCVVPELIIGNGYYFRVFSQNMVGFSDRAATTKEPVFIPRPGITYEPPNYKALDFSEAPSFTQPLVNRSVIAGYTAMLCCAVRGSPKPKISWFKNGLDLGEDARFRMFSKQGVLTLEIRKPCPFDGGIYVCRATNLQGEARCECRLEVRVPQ

Sequence of full-length recombinant human cardiac MyBP-C, nonphosphorylated (Q14896 whole entry): as above

Molecule “human cardiac myosin essential light chain (ELC) (from UniProt P08590 1-195) (natural protein)” has a stoichiometry N [1] of 1.

Molecule actin (natural protein) has a Kd [2] of 0.25 µM.

“MyBP-C (construct and phosphorylation state not told for these experiments) (from UniProt Q14896 1-1274) (natural protein)” showed a Kd [3] of 5 µM.

B1: human β-cardiac short S1 (sS1) labelled with Cy5 on cysteine residues (domain or fragment, UniProt P12883 1-808, looked up)
chain: MGDSEMAVFGAAAPYLRKSEKERLEAQTRPFDLKKDVFVPDDKQEFVKAKIVSREGGKVTAETEYGKTVTVKEDQVMQQNPPKFDKIEDMAMLTFLHEPAVLYNLKDRYGSWMIYTYSGLFCVTVNPYKWLPVYTPEVVAAYRGKKRSEAPPHIFSISDNAYQYMLTDRENQSILITGESGAGKTVNTKRVIQYFAVIAAIGDRSKKDQSPGKGTLEDQIIQANPALEAFGNAKTVRNDNSSRFGKFIRIHFGATGKLASADIETYLLEKSRVIFQLKAERDYHIFYQILSNKKPELLDMLLITNNPYDYAFISQGETTVASIDDAEELMATDNAFDVLGFTSEEKNSMYKLTGAIMHFGNMKFKLKQREEQAEPDGTEEADKSAYLMGLNSADLLKGLCHPRVKVGNEYVTKGQNVQQVIYATGALAKAVYERMFNWMVTRINATLETKQPRQYFIGVLDIAGFEIFDFNSFEQLCINFTNEKLQQFFNHHMFVLEQEEYKKEGIEWTFIDFGMDLQACIDLIEKPMGIMSILEEECMFPKATDMTFKAKLFDNHLGKSANFQKPRNIKGKPEAHFSLIHYAGIVDYNIIGWLQKNKDPLNETVVGLYQKSSLKLLSTLFANYAGADAPIEKGKGKAKKGSSFQTVSALHRENLNKLMTNLRSTHPHFVRCIIPNETKSPGVMDNPLVMHQLRCNGVLEGIRICRKGFPNRILYGDFRQRYRILNPAAIPEGQFIDSRKGAEKLLSSLDIDHNQYKFGHTKVFFKAGLLGLLEEMRDERLSRIITRIQAQSRGVLARMEYKKLLERR
modifications: Cy5-labeled cysteine residues
Molecule B1 has a Kd [4] of 17 ± 2 µM.

B2: human cardiac myosin regulatory light chain (RLC) (natural protein)
chain: MAPKKAKKRAGGANSNVFSMFEQTQIQEFKEAFTIMDQNRDGFIDKNDLRDTFAALGRVNVKNEEIDEMIKEAPGPINFTVFLTMFGEKLKGADPEETILNAFKVFDPEGKGVLKADYVREMLTTQAERFSKEEVDQMFAAFPPDVTGNLDYKNLVHIITHGEEKD
B2 showed a stoichiometry N [1] of 1.

B3: proximal part of human cardiac myosin subfragment 2 (proximal S2), wild type (domain or fragment, UniProt P12883 841-966, looked up)
chain: KSAEREKEMASMKEEFTRLKEALEKSEARRKELEEKMVSLLQEKNDLQLQVQAEQDNLADAEERCDQLIKNKIQLEAKVKEMNERLEDEEEMNAELTAKKRKLEDECSELKRDIDDLELTLAKVEK
B3 was tested, and the Kd [5] was 4 ± 1 µM, the Kd [6] was 46 ± 7 µM and the Kd [7] was over 90 µM. It also gave a Kd [8] of over 300 µM and a Kd [9] of 54 ± 4 µM.

B4: proximal S2 of human cardiac myosin labelled with Cy5 (domain or fragment, UniProt P12883 841-966, looked up)
chain: KSAEREKEMASMKEEFTRLKEALEKSEARRKELEEKMVSLLQEKNDLQLQVQAEQDNLADAEERCDQLIKNKIQLEAKVKEMNERLEDEEEMNAELTAKKRKLEDECSELKRDIDDLELTLAKVEK
modifications: Cy5 (site not stated)
For B4, the Kd [10] was about 7 µM.

B5: R870H mutant proximal S2 of human cardiac myosin (domain or fragment, UniProt P12883 841-966, looked up)
chain: KSAEREKEMASMKEEFTRLKEALEKSEARHKELEEKMVSLLQEKNDLQLQVQAEQDNLADAEERCDQLIKNKIQLEAKVKEMNERLEDEEEMNAELTAKKRKLEDECSELKRDIDDLELTLAKVEK
With B5 the Kd [6] was 59 ± 2 µM.
